Data set [1] concerns the molecule itself. Briefly: SEC. (In general: In gel filtration, larger molecules generally elute earlier.)
Data set [2] deals with the molecule itself. Briefly: SEC. This is another data set of the same source.

Read-outs that look alike come from different tables or passages of the source.

B1: HDPpf-N4 (Δ37N, 3 C-terminal residues deleted) (domain or fragment, Plasmodium falciparum, UniProt Q8IL04 38-202, looked up)
chain: VYWCFEHKPVKRTIINLIYSHNELKIFSNLLNHPTVGSSLIHELSLDGPYTAFFPSNEAMQLINIESFNKLYNDENKLSEFVLNHVTKEYWLYRDLYGSSYQPWLMYNEKREAPEKLRNLLNNDLIVKIEGEFKHCNHSIYLNGSKIIRPNMKCHNGVVHIVDKP
In general, stoichiometry N refers to the number of molecules, sites or subunits per partner or assembly. On to B1, for which the “stoichiometry N” value in data set [1] worked out at 2.

B2: HDPpf-C10 (Δ44N, C-terminal 6His) (domain or fragment, Plasmodium falciparum, UniProt Q8IL04 45-205, looked up)
chain: KPVKRTIINLIYSHNELKIFSNLLNHPTVGSSLIHELSLDGPYTAFFPSNEAMQLINIESFNKLYNDENKLSEFVLNHVTKEYWLYRDLYGSSYQPWLMYNEKREAPEKLRNLLNNDLIVKIEGEFKHCNHSIYLNGSKIIRPNMKCHNGVVHIVDKPIIF
Regarding B2, the “stoichiometry N” value in data set [2] came to 2.

The values are drawn from paper doi:10.1101/2025.06.11.659033 (bioRxiv, 2025).
